For assay [1], the target named is T1, Ero1α Cys104/Cys131Cys166Ala mutant (recombinant) (UniProt Q96HE7 24-468, Cys104/Cys131Cys166Ala | Cys104/Cys131Cys166Ala | Cys104/Cys131Cys166Ala).
T1 construct: Ero1α with Cys104, Cys131 and Cys166 replaced by Ala; used in all the in vitro experiments
T1 sequence (looked up): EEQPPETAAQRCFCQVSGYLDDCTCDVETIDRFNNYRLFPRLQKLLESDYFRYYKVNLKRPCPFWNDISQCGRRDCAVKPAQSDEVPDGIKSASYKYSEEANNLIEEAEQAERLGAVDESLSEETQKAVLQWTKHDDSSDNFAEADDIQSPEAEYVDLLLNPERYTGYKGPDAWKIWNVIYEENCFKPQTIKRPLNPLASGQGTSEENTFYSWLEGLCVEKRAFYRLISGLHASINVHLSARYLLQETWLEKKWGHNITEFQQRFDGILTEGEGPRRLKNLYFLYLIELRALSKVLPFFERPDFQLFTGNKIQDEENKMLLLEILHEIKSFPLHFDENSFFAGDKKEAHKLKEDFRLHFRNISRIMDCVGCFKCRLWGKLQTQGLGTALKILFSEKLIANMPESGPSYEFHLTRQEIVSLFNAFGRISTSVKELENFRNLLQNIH
Kind of assay: ITC; 420 µM Ero1α injected into 30 µM ERp44 WT, no Zn2+; 20 mM BisTris-HCl pH 6.2, 150 mM NaCl, 283 K. To be noted: both partners purified. (In general: ITC needs no label: the signal is the heat of the interaction.)

Assay [2] concerns the target T1, Ero1α Cys104/Cys131Cys166Ala mutant …. As to the kind of experiment: ITC; 200 µM ERp44 injected into 15 µM Ero1α and 15 µM ZnCl2; 20 mM BisTris-HCl pH 6.2, 150 mM NaCl, 283 K. To be noted: both partners purified.

One molecule from PMC6363758, “Zinc regulates ERp44-dependent protein quality control in the early secretory pathway” (Nature Communications, 2019) can be followed below.

The term Kd denotes the concentration at which binding is half-saturated.

B1: ERp44 WT (recombinant) (natural protein)
chain: EITSLDTENIDEILNNADVALVNFYADWCRFSQMLHPIFEEASDVIKEEFPNENQVVFARVDCDQHSDIAQRYRISKYPTLKLFRNGMMMKREYRGQRSVKALADYIRQQKSDPIQEIRDLAEITTLDRSKRNIIGYFEQKDSDNYRVFERVANILHDDCAFLSAFGDVSKPERYSGDNIIYKPPGHSAPDMVYLGAMTNFDVTYNWIQDKCVPLVREITFENGEELTEEGLPFLILFHMKEDTESLEIFQNEVARQLISEKGTINFLHADCDKFRHPLLHIQKTPADCPVIAIDSFRHMYVFGDFKDVLIPGKLKQFVFDLHSGKLHREFHHGPDPTDTAPGEQAQDVASSPPESSFQKLAPSEYRYTLLRDRDEL
notes: ERp44, chaperone of the PDI family; Probably the mature protein without its signal peptide (surmise)
As for B1, the Kd in assay [1] stood at 1310 nM; in assay [2], 220 nM.
